Our source for the EC50 values is patent US20260217813A1 (published 2026).

The assay addresses T1, IL-12 (Human IL12 (His Tag)), Sino Biological Cat. No. CT-050-H08H-20 (human, UniProt P29460 23-328; P29459 23-219).
T1 construct: Bought His-tagged p35/p40 heterodimer
T1 sequence (looked up) 1: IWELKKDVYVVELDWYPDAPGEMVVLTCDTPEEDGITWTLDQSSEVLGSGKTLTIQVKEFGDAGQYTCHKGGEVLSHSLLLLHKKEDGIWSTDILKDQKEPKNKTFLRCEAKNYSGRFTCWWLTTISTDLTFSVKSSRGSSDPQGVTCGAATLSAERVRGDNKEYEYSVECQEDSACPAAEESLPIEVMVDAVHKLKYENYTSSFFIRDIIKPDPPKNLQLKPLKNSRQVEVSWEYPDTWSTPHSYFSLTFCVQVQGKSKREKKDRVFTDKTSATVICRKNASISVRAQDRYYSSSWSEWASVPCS
T1 sequence (looked up) 2: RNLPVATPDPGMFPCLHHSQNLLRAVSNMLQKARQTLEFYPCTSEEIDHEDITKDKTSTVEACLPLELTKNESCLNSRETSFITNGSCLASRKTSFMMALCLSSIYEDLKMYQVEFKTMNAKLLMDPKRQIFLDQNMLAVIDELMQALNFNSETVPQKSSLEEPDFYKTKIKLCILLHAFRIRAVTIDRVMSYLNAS
Kind of assay: FACS competition, IL12-His (40 nM mixed 1:1) on 293T-IL-12RB1&IL-23R cells. How it is done:
200 μL of 1% PBSA was added into each sample, and the mixture was centrifuged at 1200 rpm for 5 min to discard the supernatant. According to experiment design, correspondingly diluted antibody (highest final concentration of 60 μg/mL, 3-fold dilution, 8 concentrations in total) and IL12-His (Sino Biological, Cat. No.: CT-050-H08H-20) (40 nM) were mixed at a ratio of 1:1, and a blank control was set. The mixture of antibody and IL12 was incubated on ice for 30 min and then added to the cell precipitate at 100 μL/sample. The resulting mixture was well mixed and incubated on ice for 60 min. 200 μL of 1% PBSA was added, and the mixture was centrifuged at 1200 rpm for 5 min to discard the supernatant, and then washed twice. THETM His tag antibody (FITC) (Genscript, Cat. No.: A01620) was diluted at a ratio of 1:500 and added to each tube at 100 μL. The mixture was well mixed and incubated on ice for 40 min in the absence of light. 200 μL of 1% PBSA was added, and the mixture was centrifuged at 1200 rpm for 5 min to discard the supernatant, and then washed twice. 1% PBSA was added at 200 μL/tube, and the cells were resuspended and transferred to a flow cytometry tube for testing.

In general, EC50 refers to the concentration giving half of the maximal effect. Higher therefore signals lower potency in that assay.

B1: H8L15 (antibody, human IgG1, kappa, V domains shown)
VH: EVQLVQSGAEVKKPGESLKISCQSSGYTFTSYWIGWVRQMPGQGLEWIGIMSPVDSDIRYNPMFRGQVTMSVDKSSSTAYLQWSSLKASDTAMYYCARRRPGQGYFDFWGQGTMVTVSS
VL: EIVLTQSPATLSASPGERATISCRASQSVGTWVAWYQQKPGQAPRSLIYAASNLQSGIPARFSGSGSGTDFTLTISSLEPEDFAVYYCQQYNIYPYTFGQGTRLEIKR
notes: IgG1 (P01857) / kappa (P01834) constant regions
Take B1: the EC50 came to 1.46 µg/mL.
